We go through three molecules from patent publication US20190233498A1 (H LUNDBECK A S, published 2019).

Residue numbers refer to the chain shown, from its start. Some results are limits rather than exact numbers.

The target of assay [1] is T1, human PACAP38 (human, not fully specified; C-terminal lysine is amidated; N-terminal or C-terminal biotin in the HTRF and PC-12 cell binding assays).
T1 peptide: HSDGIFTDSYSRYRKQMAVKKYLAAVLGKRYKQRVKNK
The assay can be described thus: cell-based or functional assay.

In assay [2] the target is T1, human PACAP38. Briefly: cell-based or functional assay.
Another assay has as its target T2, human VIP (human).
T2 construct: also called Vasoactive Intestinal Peptide
T2 peptide: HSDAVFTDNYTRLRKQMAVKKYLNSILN
Briefly: SPR, Ab immobilised. The method, then:
[The procedure below names another target; the source says it served here with some conditions changed.] (§1) Binding affinities of monoclonal antibodies for human PACAP were estimated using SPR on the PROTEON™ XPR36 (Bio-Rad, Hercules, Calif.). Antibody was immobilized to the surface of general amine coupling (“GLC” or “GLM”) Chips (Bio-Rad, Hercules, Calif.). A dilution series of human PACAP38 (SEQ ID NO: 1241) prepared in 1×PBST Buffer (4.3 mM Na Phosphate, 1.4 mM K Phosphate, 135 mM NaCl, 2.7 mM KCl 0.05% Polysorbate-20) purchased from Teknova (Cat# P1192, Teknova, Hollister, Calif.) and supplemented with 0.25 M arginine (from J.T. BAKER®), 0.2 mg/ml BSA (Jackson Immuno Research Labs, West Grove, Pa.), and 0.005% sodium azide (VWR International, Radnor, Pa.) with the pH adjusted to 7 was used to query the antibodies. Antigen (ranging from 1.23 nM to 100 nM) was typically run sequentially with association times of 2-4 minutes and dissociation times of 3-120 minutes grouped with the PROTEON™ Manager Software (v3.1.0.6 (Bio-Rad, Hercules, Calif.)) and fitted using a 1:1 Langmuir binding model. Surfaces were regenerated between analyte queries using 0.85% Phosphoric Acid.
Background: In SPR one partner is held on a chip, and binding of the other changes the refractive index at the surface.

For assay [3], the target named is T1, human PACAP38. Briefly: SPR, Ab immobilised. The method, then: as §1
Assay [4] concerns the target T3, human PACAP27 (human, C-terminal leucine is amidated; 125I-labelled in Example 10).
T3 peptide: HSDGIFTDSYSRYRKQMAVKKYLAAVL
Briefly: SPR, Ab immobilised. The method, then:
[The procedure below names another target; the source says it served here with some conditions changed.] as §1

Assay [5] addresses T1, human PACAP38. Briefly: HTRF binding, biotin-PACAP38. The method, then:
In parallel, 10 μl of an antibody dilution series (highest final concentration of 100 nM) were incubated with 10 μl of N-terminal or C-terminal biotinylated PACAP38 (35 nM final) alone, or in combination with either PACAP27 (350 nM final) or VIP (350 nM final), i.e., 10× PACAP27 or 10×VIP, respectively, in a HTRF plate. 20 μl of Eu³⁺ cryptate labeled anti-hu Fc donor and 20 μl of d2-labeled streptavidin acceptor were added to each well and incubated for 1 hour at room temperature. Fluorescence was measured at 620 and 665 nm with a delay of 300 μsec.
EC₅₀ values, i.e. the concentration of an antibody that yields a response halfway between the baseline and the maximum value within a specified time period, were computed for each antibody based upon their binding curves and are shown in Table 1 below. […] A humanized form of antibody Ab1 was produced and is identified by an appended “.H”, i.e., Ab1.H, and it also bound PACAP38 with high affinity.
In general terms: In TR-FRET formats the signal depends on donor and acceptor labels being close together.

In assay [6] the target is T1, human PACAP38. Briefly: inhibition of 100 nM biotin-PACAP38 binding to PC-12 cells, TRF. The method, then: To identify antibodies that block PACAP38 binding to PAC1-R-expressing cells, adherent PC-12 cells (ATCC, Manassas, Va.) expressing PAC1-R were used in a Europium-based PAC1-R expressing cells binding assay.
Antibody solutions were incubated with N-terminal biotinylated PACAP38 at 10× the final concentration (100 nM or 30 nM) for 1 hr, then added to PC-12 cells that were plated 24 hrs. prior in black clear bottom 96 well plates (COSTAR™, Corning Incorporated, Corning, N.Y.) and further incubated for 1 hr at room temperature. After three washes, the cells were incubated with 20 μl Europium-labeled streptavidin (PerkinElmer, Waltham, Mass.) for 1 hr at room temperature. Cells were washed three times, then 20 μl DELFIA® Enhancement solution (PerkinElmer, Waltham, Mass.) was added to each well and incubated for 15 minutes with gentle shaking. Plates were read (Time Resolved Fluorescence (“TRF”)) on SPECTRAMAX® (Molecular Devices, Sunnyvale, Calif.) plate reader.
FIGS. 14A-14BB are representative of the inhibition curves obtained by this method (results are shown for Ab1, Ab2, Ab3, Ab4, Ab5, Ab6, Ab7, Ab8, Ab9, Ab10, Ab11, Ab12, Ab13, Ab14, Ab15, Ab16, Ab17, Ab18, Ab19, Ab1.H, Ab10.H, Ab22, Ab23, Ab3.H, Ab4.H, Ab5.H, Ab9.H, and Ab12.H, respectively) wherein the PAC1-R expressing cells were PC-12 cells.

For assay [7], the target named is T1, human PACAP38. The assay can be described thus: cell-based or functional assay.
For assay [8], the target named is T3, human PACAP27. The assay can be described thus: cell-based or functional assay.

B1: anti-PACAP antibody Ab16 (antibody, human IgG1, kappa, N297A, V domains shown)
VH: QSVEESGGRLVTPGTPLTLTCTVSGFSLSSAAMSWVRQAPGKGLEWIGIIDDSGNTYYASWAKARFTISKTSSTTVDLKMTSPTTEDTATYFCARGGGEFFIWGPGTLVTVSS
VL: DPVLTQTPSSVSAAVGGTVTINCQSSQSVYNNKWLSWYQQKPGQSPKFLIYQASNLASGVPSRFKGSGSGTQFTLTISDLECDDGATYYCAGGYRGNVCGFGGGTEVVVKR
notes: full-length rabbit/human chimeric antibody
What is called Kd is a measure of binding affinity in units of concentration. Read a high Kd as lower affinity. Usually koff stands for the first-order rate constant of dissociation. Read a low koff as slow dissociation. As usually defined, the kon is a measure of how fast the partners come together. A low value points to slow association. A word on the EC50: it is the midpoint of the concentration-response curve. For orientation: IC50 means the concentration at which inhibition is half-maximal. Higher therefore signals weaker potency. For the molecule B1, in the assay with human PACAP38 [1], the “IC50, 5 nM PACAP38-induced human VPAC1-R mediated cAMP increase” value turned out to be 3530 pM. Also, the “IC50, 1 nM PACAP38-induced human VPAC2-R mediated cAMP increase” value in the assay with human PACAP38 [2] was found to be 1150 pM. In the assay with human VIP, this molecule gave a Kd of 260 nM, a koff of 0.096 s⁻¹ and a kon of 360000 M⁻¹ s⁻¹. Also, in the assay with human PACAP38 [3], the Kd was at most 0.011 nM, the koff was at most 1e-05 s⁻¹ and the kon came to 910000 M⁻¹ s⁻¹. In the assay with human PACAP27 [4], binding was put at a Kd of 0.035 nM, the koff was determined as 2.9e-05 s⁻¹ and the kon stood at 820000 M⁻¹ s⁻¹. Also, in the assay with human PACAP38 [5], the EC50 was found to be 0.68 nM. The molecule further yielded an IC50 in the assay with human PACAP38 [6] of 27.3 nM. The “IC50, 0.1 nM PACAP38-induced PAC1-R mediated cAMP increase” value in the assay with human PACAP38 [7] turned out to be 212 pM. Moreover, the “IC50, 0.1 nM PACAP27-induced PAC1-R mediated cAMP increase” value in the assay with human PACAP27 [8] amounted to 192 pM.

B2: anti-PACAP antibody Ab18 (antibody, human IgG1, kappa, N297A, V domains shown)
VH: B1 VH with M33L, D52K, S53G, G54V, N55M, T56S, A64G, M80V, P105Q
VL: B1 VL with D1A, P2Q, Q27K, K33N, S45P, G85A, R95S, V98I, C99V
notes: as for B1
With B2, the “IC50, 5 nM PACAP38-induced human VPAC1-R mediated cAMP increase” value with human PACAP38 [1] was 911 pM. In the assay with human PACAP38 [2], the “IC50, 1 nM PACAP38-induced human VPAC2-R mediated cAMP increase” value is 285 pM. The Kd is 400 nM in the assay with human VIP, at most 0.023 nM with human PACAP38 [3] and at most 0.023 nM with human PACAP27 [4]. In addition, the koff with human VIP is 0.12 s⁻¹; in the assay with human PACAP38 [3], at most 1e-05 s⁻¹; in the assay with human PACAP27 [4], at most 1e-05 s⁻¹. In addition, the association rate constant (kon) was found to be 310000 M⁻¹ s⁻¹ with human VIP, 430000 M⁻¹ s⁻¹ with human PACAP38 [3] and 440000 M⁻¹ s⁻¹ with human PACAP27 [4]. In the assay with human PACAP38 [5], the EC50 is 0.48 nM. The IC50 in the assay with human PACAP38 [6] is 30.6 nM. The “IC50, 0.1 nM PACAP38-induced PAC1-R mediated cAMP increase” value with human PACAP38 [7] was determined as 118 pM. Besides, the “IC50, 0.1 nM PACAP27-induced PAC1-R mediated cAMP increase” value with human PACAP27 [8] was found to be 91.6 pM.

B3: anti-PACAP antibody Ab17 (antibody, human IgG1, kappa, N297A, V domains shown)
VH: B1 VH with S34N, I50F, D52P, S53Y, G54S, N55S, A64G
VL: AQVLTQTPSSVSAAVGGTVTINCQSSQSVYKNKYLSWYQQKVGQPPKFLIYQASNLASGVPSRFKGSGSGTQFTLTISDLECDDAATYYCAGGYSGNMVDFGGGTEVVVKR
notes: as for B1
In the case of B3, the “IC50, 5 nM PACAP38-induced human VPAC1-R mediated cAMP increase” value with human PACAP38 [1] was determined as 780 pM. In addition, in the assay with human PACAP38 [2], the “IC50, 1 nM PACAP38-induced human VPAC2-R mediated cAMP increase” value was 205 pM. Besides, in the assay with human VIP, binding was put at a Kd of 55 nM, the koff amounted to 0.017 s⁻¹ and the kon worked out at 310000 M⁻¹ s⁻¹. Further, in the assay with human PACAP38 [3], the Kd is at most 0.02 nM, the koff was at most 1e-05 s⁻¹ and the kon was found to be 500000 M⁻¹ s⁻¹. In the assay with human PACAP27 [4], this molecule returned a Kd of at most 0.027 nM, a koff of at most 1e-05 s⁻¹ and a kon of 370000 M⁻¹ s⁻¹. Further, in the assay with human PACAP38 [5], the EC50 stood at 0.46 nM. This molecule registered an IC50 in the assay with human PACAP38 [6] of 33.1 nM. The “IC50, 0.1 nM PACAP38-induced PAC1-R mediated cAMP increase” value in the assay with human PACAP38 [7] stood at 97.7 pM. In addition, the “IC50, 0.1 nM PACAP27-induced PAC1-R mediated cAMP increase” value in the assay with human PACAP27 [8] was 77.6 pM.
